Data on 94 variants can be found in the supplement of paper PMC10567573.

The labels stand for the following.
B1: ZNF207 (parent)
chain: CHICHKKLYTGPGLAIHCMQVHKE
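Further: lentivirally expressed fusions sorted by FACS into six bins by GFP to DsRed ratio, PSI derived from sequencing read proportions per bin multiplied by bin number.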

Variants of B1 are the subject of this series. Description: protein stability index of a GFP-peptide fusion (GPS, HEK-293T) (PSI 1-6); higher = more stable. The note with it: c terminus: a fixed tail appended.
As for CHICHKKFYTGPGLAIHCMQVHKE, the protein stability index came out at 2.44. Regarding CHICHKKYYTGPGLAIHCMQVHKE, the protein stability index worked out at 2.33.

For CHICHKKVYTGPGLAIHCMQVHKE, the protein stability index came to 4.12.

On to CHICHKKAYTGPGLAIHCMQVHKE, for which the protein stability index is 2.33. Then CHICHKKWYTGPGLAIHCMQVHKE, with 2.66. Then CHICHKKGYTGPGLAIHCMQVHKE, with 3.61. As to CHICHKKEYTGPGLAIHCMQVHKE, the protein stability index was found to be 3.96. Then CHICHKKPYTGPGLAIHCMQVHKE, with 3.1. Consider CHICHKKHYTGPGLAIHCMQVHKE, for which the protein stability index came to 3.14. Take CHICHKKMYTGPGLAIHCMQVHKE: the protein stability index worked out at 4.63.

Regarding CHICHKKSYTGPGLAIHCMQVHKE, the protein stability index came to 2.57. Consider CHICHKKQYTGPGLAIHCMQVHKE, for which the protein stability index stood at 2.93. As for CHICHKKRYTGPGLAIHCMQVHKE, the protein stability index is 1.37. For CHICHKKTYTGPGLAIHCMQVHKE, the protein stability index was 3.02. As to CHICHKKNYTGPGLAIHCMQVHKE, the protein stability index is 2.97. Take CHICHKKCYTGPGLAIHCMQVHKE: the protein stability index came out at 3.16. Regarding CHICHKKKYTGPGLAIHCMQVHKE, the protein stability index turned out to be 2.42. In the case of CHICHKKIYTGPGLAIHCMQVHKE, the protein stability index is 3.67.

Turning to CHICHKKDYTGPGLAIHCMQVHKE, the protein stability index was found to be 3.37. Then CHICHKKLNTGPGLAIHCMQVHKE, with 3.83; and CHICHKKLITGPGLAIHCMQVHKE, with 2.72. For CHICHKKLSTGPGLAIHCMQVHKE, the protein stability index was 4.28. With CHICHKKLETGPGLAIHCMQVHKE, the protein stability index was 4.6. The result for CHICHKKLDTGPGLAIHCMQVHKE reads 4.9; that for CHICHKKLTTGPGLAIHCMQVHKE, 3.27; that for CHICHKKLMTGPGLAIHCMQVHKE, 4.14.

Turning to CHICHKKLLTGPGLAIHCMQVHKE, the protein stability index is 3.97. On to CHICHKKLCTGPGLAIHCMQVHKE, for which the protein stability index is 3.39. As for CHICHKKLFTGPGLAIHCMQVHKE, the protein stability index amounted to 3.16. On to CHICHKKLATGPGLAIHCMQVHKE, for which the protein stability index came out at 4.31. For the variant CHICHKKLPTGPGLAIHCMQVHKE, the protein stability index stood at 3.64. Regarding CHICHKKLHTGPGLAIHCMQVHKE, the protein stability index stood at 3.62.

As to CHICHKKLQTGPGLAIHCMQVHKE, the protein stability index came to 3.93. For CHICHKKLKTGPGLAIHCMQVHKE, the protein stability index is 3.29. For the variant CHICHKKLGTGPGLAIHCMQVHKE, the protein stability index was 3.76. Take CHICHKKLVTGPGLAIHCMQVHKE: the protein stability index came out at 3.19. For the variant CHICHKKLRTGPGLAIHCMQVHKE, the protein stability index was 4.11.

Take CHICHKKLWTGPGLAIHCMQVHKE: the protein stability index is 2.34.

As to CHICHKKLYEGPGLAIHCMQVHKE, the protein stability index turned out to be 3.83.

Consider CHICHKKLYFGPGLAIHCMQVHKE, for which the protein stability index came to 2.4. Consider CHICHKKLYHGPGLAIHCMQVHKE, for which the protein stability index was determined as 2.68. For CHICHKKLYSGPGLAIHCMQVHKE, the protein stability index came to 3.31.

Turning to CHICHKKLYMGPGLAIHCMQVHKE, the protein stability index amounted to 2.55. The result for CHICHKKLYVGPGLAIHCMQVHKE reads 3.5; that for CHICHKKLYKGPGLAIHCMQVHKE, 2.65. Regarding CHICHKKLYPGPGLAIHCMQVHKE, the protein stability index was determined as 3.68. For the variant CHICHKKLYDGPGLAIHCMQVHKE, the protein stability index came out at 4.59. The result for CHICHKKLYAGPGLAIHCMQVHKE reads 3.47; that for CHICHKKLYGGPGLAIHCMQVHKE, 3.06; that for CHICHKKLYCGPGLAIHCMQVHKE, 2.92. Turning to CHICHKKLYQGPGLAIHCMQVHKE, the protein stability index was 3.8.

CHICHKKLYWGPGLAIHCMQVHKE: the protein stability index is 2.56. With CHICHKKLYRGPGLAIHCMQVHKE, the protein stability index is 2.52. On to CHICHKKLYIGPGLAIHCMQVHKE, for which the protein stability index was determined as 2.86. For CHICHKKLYLGPGLAIHCMQVHKE, the protein stability index came to 2.49. As to CHICHKKLYNGPGLAIHCMQVHKE, the protein stability index came to 3.58. With CHICHKKLYYGPGLAIHCMQVHKE, the protein stability index is 2.6. Then CHICHKKLYTVPGLAIHCMQVHKE, with 2.32. Take CHICHKKLYTEPGLAIHCMQVHKE: the protein stability index came out at 4.53.

Consider CHICHKKLYTFPGLAIHCMQVHKE, for which the protein stability index amounted to 2.63.

On to CHICHKKLYTPPGLAIHCMQVHKE, for which the protein stability index is 3.94. Consider CHICHKKLYTYPGLAIHCMQVHKE, for which the protein stability index was found to be 1.56.

With CHICHKKLYTNPGLAIHCMQVHKE, the protein stability index is 3.59. Take CHICHKKLYTAPGLAIHCMQVHKE: the protein stability index was found to be 2.67. CHICHKKLYTDPGLAIHCMQVHKE: the protein stability index worked out at 3.98.

Regarding CHICHKKLYTLPGLAIHCMQVHKE, the protein stability index came to 2.63. As for CHICHKKLYTRPGLAIHCMQVHKE, the protein stability index was found to be 3.53.

Take CHICHKKLYTQPGLAIHCMQVHKE: the protein stability index turned out to be 3.37.

In the case of CHICHKKLYTSPGLAIHCMQVHKE, the protein stability index turned out to be 3.48. As for CHICHKKLYTKPGLAIHCMQVHKE, the protein stability index came to 3.34. As for CHICHKKLYTHPGLAIHCMQVHKE, the protein stability index is 2.68. Turning to CHICHKKLYTMPGLAIHCMQVHKE, the protein stability index worked out at 2.05. The result for CHICHKKLYTIPGLAIHCMQVHKE reads 1.58. CHICHKKLYTCPGLAIHCMQVHKE: the protein stability index came out at 2.31. The result for CHICHKKLYTTPGLAIHCMQVHKE reads 2.48; that for CHICHKKLYTWPGLAIHCMQVHKE, 1.36; that for CHICHKMLYTGPGLAIHCMQVHKE, 3.86. Regarding CHICHKGLYTGPGLAIHCMQVHKE, the protein stability index amounted to 3.27.

CHICHKILYTGPGLAIHCMQVHKE: the protein stability index was found to be 3.73. Then CHICHKNLYTGPGLAIHCMQVHKE, with 4.21. Turning to CHICHKSLYTGPGLAIHCMQVHKE, the protein stability index is 3.66. With CHICHKQLYTGPGLAIHCMQVHKE, the protein stability index is 4.11. CHICHKLLYTGPGLAIHCMQVHKE: the protein stability index was 4.3. Regarding CHICHKTLYTGPGLAIHCMQVHKE, the protein stability index was 3.98. The result for CHICHKYLYTGPGLAIHCMQVHKE reads 4.2; that for CHICHKVLYTGPGLAIHCMQVHKE, 4.09. The result for CHICHKRLYTGPGLAIHCMQVHKE reads 3.48.

For the variant CHICHKWLYTGPGLAIHCMQVHKE, the protein stability index was 3.27. Turning to CHICHKHLYTGPGLAIHCMQVHKE, the protein stability index was 3.25. With CHICHKPLYTGPGLAIHCMQVHKE, the protein stability index came to 2.55. For CHICHKKLYTGDGLAIHCMQVHKE, the protein stability index came to 4.51.

As for CHICHKKLYTGEGLAIHCMQVHKE, the protein stability index was 4.48. Consider CHICHKKLYTGCGLAIHCMQVHKE, for which the protein stability index stood at 3.09. For CHICHKKLYTGAGLAIHCMQVHKE, the protein stability index came to 3.84.
